Drawing on patent US20260184766A1, this text covers EC50 (pM), pseudovirus luciferase assay, Neutralization of Pseudovirus (ng/mL; parameter not named) and EC50 (read off the curve) for four molecules.

Usually EC50 (read off the curve) stands for the concentration at which the effect is half-maximal.

Some results are limits rather than exact numbers.

Assay [1] deals with SARS-CoV-2 S variant K417N/E484K/N501Y (B.1.351, SA variant; beta lineage) carried by pseudotyped virus (SARS-CoV-2 B.1.351), P0DTC2. In words: cell-based or functional assay.
Assay [2] deals with SARS-CoV-2 S variant 484K carried by pseudotyped virus (SARS-CoV-2), P0DTC2. In words: cell-based or functional assay.
In assay [3] the target is SARS CoV-2 omicron variant recombinant stabilized spike trimer (SARS-CoV-2 omicron variant).
Assay [4] addresses SARS CoV-2 omicron variant spike RBD (SARS-CoV-2 omicron variant). The assay is described as follows: ELISA on omicron variant RBD (panel RBD), OD450.

B1: SKD chimeric bovine-human IgG1 (ultralong CDR3) (antibody)
VH: QVQLRESGPSLVKPSQTLSLTCTASGFSLSDKAVGWVRQAPGKALEWLGSIDTGGNTGYNPGLKSRLSITKDNSKSQVSLSVSSVTTEDSATYYCTTVHQRTSEKRSCPGGSSRRYPSGASCDVSGGACACYVSNCRGVLCPTLNEIVAYTYEWHVDAWGQGLLVTVSS
VL: QAVLNQPSSVSGSLGQRVSITCSGSSSNVGNGYVSWYQLIPGSAPRTLIYGDTSRASGVPDRFSGSRSGNTATLTISSLQAEDEADYFCASAEDSSSNAVFGSGTTLTVL
Turning to B1, the EC50 (pM), pseudovirus luciferase assay in assay [1] and in assay [2] was greater than 1000 pM throughout. In assay [1], this molecule yielded a Neutralization of Pseudovirus (ng/mL; parameter not named) greater than 1000 ng/mL.

B2: SKM chimeric bovine-human IgG1 (ultralong CDR3) (antibody)
VH: QVQLRESGPSLVKPSQTLSLTCTASGFSLSDKAVGWVRQAPGKALEWLGSIDTGGNTGYNPGLKSRLSITKDNSKSQVSLSVSSVTTEDSATYYCTTVHQETLRSCPDGYIDNSGCTADWGCAALDCWRRRFGYHSTDPSHYTGATYIYTYSLHIDAWGQGLLVTVSS
VL: QAVLNQPSSVSGSLGQRVSITCSGSSSNVGNGYVSWYQLIPGSAPRTLIYGDTSRASGVPDRFSGSRSGNTATLTISSLQAEDEADYFCASAEDSSSNAVFGSGTTLTVL
Regarding B2, in assay [1], the EC50 (pM), pseudovirus luciferase assay is greater than 1000 pM and the Neutralization of Pseudovirus (ng/mL; parameter not named) is greater than 1000 ng/mL. The molecule also displayed an EC50 (pM), pseudovirus luciferase assay in assay [2] greater than 1000 pM.

B3: R4C1 chimeric bovine-human IgG1 (ultralong CDR3) (antibody)
VH: QVQLRESGPSLVKPSQTLSLTCTASGFSLSDKAVGWVRQAPGKPLEWLGSIDTAENTGYNPGLKSRLSITKDNSKSQVSLSVSSVTTEDSATYYCATVHQKTRKEKNCPDGYIYSSNTASGYDCGVWICRRVGSAFCSRTGDYTSPSEFDIYEFYVEGWGQGLLVTVSS
VL: QAVLNQPSSVSGSLGQRVSITCSGSSSNVGNGYVSWYQLIPGSAPRTLIYGDTSRASGVPDRFSGSRSGNTATLTISSLQAEDEADYFCASAEDSSSNAVFGSGTTLTVL
In assay [1], B3 came in with a Neutralization of Pseudovirus (ng/mL; parameter not named) of 375 ng/mL.

B4: R2D9 chimeric bovine-human IgG1 (ultralong CDR3) (antibody)
VH: QVQLRESGPSLVKPSQTLSLTCTASGFSLSDKAIGWVRQAPGKALEWLGSIDTRGNTGYNPGLKSRLSITKDSSKSQVSLSVNSVTTEDSATYLCAIVQQITHKTCPNGYNWFDRCCSWDGTCGDGCCSNRAWPSGNGRADSSIGETYGYEFHVAAWGQGLLVTVSS
VL: QAVLNQPSSVSGSLGQRVSITCSGSSSNVGNGYVSWYQLIPGSAPRTLIYGDTSRASGVPDRFSGSRSGNTATLTISSLQAEDEADYFCASAEDSSSNAVFGSGTTLTVL
With B4, the EC50 (read off the curve) in assay [3] and in assay [4] was 0.4 nM throughout.
